# According to patent US20250152729A1 (CANCER RESEARCH TECHNOLOGY, published 2025):
# Changes are numbered by the printed parent chain. Numbers in names are those of the source.
# T1: human SEMA4B expressed on expi293 cells (human, UniProt Q9NPR2 44-837)
# T1 construct: whole, on cells
# T1 sequence (looked up): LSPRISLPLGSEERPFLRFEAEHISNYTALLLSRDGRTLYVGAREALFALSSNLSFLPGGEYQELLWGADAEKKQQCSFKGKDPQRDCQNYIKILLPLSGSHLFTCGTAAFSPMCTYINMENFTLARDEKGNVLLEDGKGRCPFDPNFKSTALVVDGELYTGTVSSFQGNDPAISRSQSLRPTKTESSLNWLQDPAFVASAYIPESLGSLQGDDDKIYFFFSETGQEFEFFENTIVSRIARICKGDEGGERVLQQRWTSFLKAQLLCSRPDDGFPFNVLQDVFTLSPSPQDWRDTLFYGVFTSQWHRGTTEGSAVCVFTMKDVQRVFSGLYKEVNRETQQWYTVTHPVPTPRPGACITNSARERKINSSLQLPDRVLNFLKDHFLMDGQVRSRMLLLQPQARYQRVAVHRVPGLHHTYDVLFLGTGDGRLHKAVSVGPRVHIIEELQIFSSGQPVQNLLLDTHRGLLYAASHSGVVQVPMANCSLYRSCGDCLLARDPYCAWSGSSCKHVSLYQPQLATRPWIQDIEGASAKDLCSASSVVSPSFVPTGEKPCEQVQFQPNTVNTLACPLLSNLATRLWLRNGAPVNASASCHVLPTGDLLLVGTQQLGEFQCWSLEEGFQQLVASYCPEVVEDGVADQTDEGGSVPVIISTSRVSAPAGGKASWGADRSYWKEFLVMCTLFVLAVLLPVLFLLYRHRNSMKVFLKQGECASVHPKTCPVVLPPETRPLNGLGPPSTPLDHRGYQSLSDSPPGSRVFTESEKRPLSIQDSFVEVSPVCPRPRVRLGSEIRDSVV
# T2: recombinant human SEMA4A AviHis10, biotinylated (human, UniProt Q9H3S1 33-683, biotin on the Avi tag (BirA))
# T2 construct: The text says amino acids 33-683 of Q9H3S1 with C-terminal Avi tag and His10 tag; also called avi-SEMA4A-His10
# T2 sequence: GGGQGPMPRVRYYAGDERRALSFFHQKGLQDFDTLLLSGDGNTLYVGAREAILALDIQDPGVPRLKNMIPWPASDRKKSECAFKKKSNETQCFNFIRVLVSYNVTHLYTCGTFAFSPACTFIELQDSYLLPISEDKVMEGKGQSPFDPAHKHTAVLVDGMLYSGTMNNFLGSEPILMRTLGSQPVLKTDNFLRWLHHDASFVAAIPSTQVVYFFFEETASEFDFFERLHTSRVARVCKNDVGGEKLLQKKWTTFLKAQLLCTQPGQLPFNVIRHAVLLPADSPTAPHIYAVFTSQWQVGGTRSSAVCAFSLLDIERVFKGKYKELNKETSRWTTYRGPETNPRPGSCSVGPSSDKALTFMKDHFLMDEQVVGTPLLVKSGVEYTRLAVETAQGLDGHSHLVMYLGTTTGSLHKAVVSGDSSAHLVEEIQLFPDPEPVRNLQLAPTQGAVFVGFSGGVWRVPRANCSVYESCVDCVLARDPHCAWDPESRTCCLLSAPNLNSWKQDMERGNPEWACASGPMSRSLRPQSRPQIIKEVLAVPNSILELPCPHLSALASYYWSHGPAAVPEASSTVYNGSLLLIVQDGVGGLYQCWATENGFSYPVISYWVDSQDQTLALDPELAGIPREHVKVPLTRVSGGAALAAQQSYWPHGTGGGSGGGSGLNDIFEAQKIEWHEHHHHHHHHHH
# B1: C0120914 human Alya IgG1 (antibody, V domains shown)
# VH: QVQLQESGPGLVKPSETLSLTCTVSGGSVSSGRYDWSWIRQPPGKGLEWIGHIYYTGITDYNPSLRSRVTISADKPKNQFSLKLNSVTAADTAVYYCARGPFFDPWGQGTMVTVSS
# VL: QSVLTQPPSVSVAPGQTASLTCGANNIGSKSVQWYQQKPGQAPVLVVYDGSDRPSGIPDRFSGSSSENTATLTISRVEAGDEADYYCQLWDSVTDRPVFGGGTKVTVL
# notes: Fully human, phage display derived; human IgG1 Alya constant (239iCys, S442C, EU); unconjugated
# B2: C0120918 human Alya IgG1 (antibody, V domains shown)
# VH: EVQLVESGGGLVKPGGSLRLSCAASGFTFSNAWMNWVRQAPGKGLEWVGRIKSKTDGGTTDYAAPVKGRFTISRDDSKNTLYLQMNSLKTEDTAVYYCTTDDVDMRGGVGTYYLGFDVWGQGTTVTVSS
# VL: SYELTQPPSVSVSPGQTARITCSGDALPKQYAYWYQQKPGQAPVLVIYKDSERPSGIPERFSGSSSGTTVTLTISGVQAEDEADYYCQSADSSGTWVFGGGTKVTVL
# notes: as for B1
# B3: C0120917 human Alya IgG1 (antibody, V domains shown)
# VH: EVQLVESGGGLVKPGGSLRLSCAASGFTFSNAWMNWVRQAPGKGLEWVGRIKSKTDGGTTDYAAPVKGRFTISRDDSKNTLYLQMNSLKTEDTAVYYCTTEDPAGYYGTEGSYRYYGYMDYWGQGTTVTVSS
# VL: NFMLTQPHSVSESPGKTVTISCTASGDTLDNKYVNWYQVRPGSAPATLIFHYEERDSGVPDRFSGSFDASSNSASLTISGLQTADEADYFCQSYDSKRDNLVVFGGGTKVTVL
# notes: as for B1
# B4: C0120906 human Alya IgG1 (antibody, V domains shown)
# VH: EVQLVQSGPEVKKPGASVKISCKASGYKLNDPGVHGVSWVRQAPGQGLEWMGWISTLNGDTRYAQKFQGRVTMATDSSTSTIYMDLRSLKSDDTALYYCARDDYTAIFDFWGRGTLVTVSS
# VL: QSVLTQPPSVSVAPGQTASITCGGSNIGSQSVHWYQQKPGQAPVLVVYDDSDRPSGIPERFSGSKSGNTASLILSRVEAGDEADYYCQVWDSSTDHHVFGTGTKVTVL
# notes: as for B1
# B5: C0120903 human Alya IgG1 (antibody, V domains shown)
# VH: EVQLVQSGAEVKKPGSSMKVSCKASGGTFNSYTINWVRQAPGQGLEWVGGFIPIFGTADYAQKFHGRVAITADESMSTAYMELSSLRSEDTAVYYCARAPLGSEPFDYWGQGTMVTVSS
# VL: SYVLTQPPSVSVAPGQTARITCGGNNIGSKSVHWYQQKPGQAPVLVVYDDSDRPSGIPERFSGSNSGNTATLTISRVEAGDEADYYCQVWDSSSDHLVFGGGTKLTVL
# notes: as for B1
# B6: mouse 5E3 expressed as human IgG1 Alya (antibody, V domains shown)
# VH: QVQLQQPGAELVMPGASVKMSCKASGYTFTDYWMHWVKQRPGQGLEWIGAIDTSDSYTSYNQKFKGKATLTVDESSSTAYMQLSSLTSEDSAVYYCARDYGNFYYYAMDYWGQGTSVTVSS
# VL: QAVVTQESALTTSPGETVTLTCRSSTGAVTTSNYANWVQEKPDHLFTGLIGGTNNRAPGVPARFSGSLIGDKAALTITGAQTEDEAIYFCALWYSNHWVFGGGTKLTVL
# notes: Mouse variable domains on human IgG1 Alya constant (pEU1.22; 239iCys and S442C, EU numbering); purified, unconjugated; also called 5E3 IgG1 Alya
# B7: C0120905 human Alya IgG1 (antibody, V domains shown)
# VH: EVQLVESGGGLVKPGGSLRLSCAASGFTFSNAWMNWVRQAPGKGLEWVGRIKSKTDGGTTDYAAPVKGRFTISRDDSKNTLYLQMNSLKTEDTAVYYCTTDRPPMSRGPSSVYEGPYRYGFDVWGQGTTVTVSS
# VL: NFMLTQPHSVSESPGKTVTISCTGSGGNIVDNFVQWHQQRPGSAPRTVIYEDDQRPSGVPDRFSASVDSSSNSGTLSISGLKTEDEADYYCQSYDGANRWVFGGGTKLTVL
# notes: as for B1
# B8: 5Hg1-5Lg1 human Alya IgG1 (antibody, V domains shown)
# VH: QVQLVQSGAEVKKPGASVKVSCKASGYTFTDYWMHWVRQAPGQGLEWMGAIDTSDSYTSYNQKFKGRVTMTRDTSTSTVYMELSSLRSEDTAVYYCARDYGNFYYYAMDYWGQGTLVTVSS
# VL: QAVVTQEPSLTVSPGGTVTLTCRSSTGAVTTSNYANWFQQKPGQAPRTLIYGTNNRAPWTPARFSGSLLGGKAALTLSGAQPEDEAEYYCALWYSNHWVFGGGTKLTVL
# notes: Humanised 5E3; human IgG1 Alya constant (239iCys, S442C, EU), lambda light chain; purified, unconjugated
# B9: 5Hg2-5Lg2 human Alya IgG1 (antibody, V domains shown)
# VH: B8 VH with G44R, M70I, T76A, V79A
# VL: B8 VL with S78L
# notes: as for B8
# Target: T1, human SEMA4B expressed on expi293 cells
# Experiment: Mirrorball direct binding, dilution series on expi293 cells transiently transfected with human SEMA4B, anti-human Alexa Fluor 647
# From the text: Hits from the primary screening were re-formatted into the human Alya IgG1 vector and re-expressed and purified as described in section 4.1. In addition, a single clone was identified that contained an Asparagine deamidation motif (Asn Gly) within its VHCDR2. This potential sequence liability was de-risked by synthesising de novo two clonal variant VH genes (Asn Ala and Gln Gly) and cloning these sequences into the human Alya IgG1 expression vector. To determine the specificity profile of each purified human Alya IgG1, a dilution series was tested for binding to human SEMA4A, mouse SEMA4A, cyno SEMA4A, human SEMA4B and mock transfected cells (transient transfections set up in expi 293 cells.) The five assays employed methods described in section 2.3, using the appropriate cells and substituting the un-purified scFv periplasmic preparation with the recombinant human Alya IgG1 dilution series. Data was analysed as Count x median mean intensity (x FLU).
row,Binder,binding result
1,B1,no binding (tested: log (M) -8 (1e-8 M))
2,B2,no binding (tested: log (M) -8 (1e-8 M))
3,B3,no binding (tested: log (M) -8 (1e-8 M))
4,B4,no binding (tested: log (M) -8 (1e-8 M))
5,B5,no binding (tested: log (M) -8 (1e-8 M))
6,B6,no binding (tested: log (M) -8 (1e-8 M))
7,B7,no binding (tested: log (M) -8 (1e-8 M))

# Target: T2, recombinant human SEMA4A AviHis10, …
# Experiment: BLI (OctetRED), biotinylated SEMA4A on streptavidin tip, IgG as analyte, 1:1 model; KD(observed) IgG
# Protocol: An Octet Kinetics buffer (PBS containing 0.01% (v/v) BSA and 0.002% (v/v) Tween20) is typically used as the diluent buffer for the analyte samples and as the flow buffer during the dissociation phase. The experimental data is recorded as shift in interference pattern (nm) over time, which is directly proportional to the optical thickness at the biosensor tip, which in turn is an approximate measure of the mass of analyte bound. The proprietary Octet Data Analysis software package can then be used to process data and fit binding models to the data sets. Returned association (ka, M-1 s-1) and dissociation (kd, s-1) rate constants allow calculation of dissociation (KD, M) affinity constants.
# The affinity of binding between the analytes (humanised and phage display derived IgGs as human Alya IgG1s and Fabs) and human SEMA4A and cynomolgus SEMA4A, was estimated using assays in which the biotinylated SEMA4A antigen was captured on a streptavidin sensor tip. A fresh sensor tip was used for each measurement and no regeneration was used. A series of dilutions of the lead Fabs and human Alya IgG1s (3.25-240 nM) were individually placed in contact with the ligand surface for a sufficient amount of time to observe sensorgrams that could be fitted to an appropriate binding model with confidence (typically 5 minutes), followed by an appropriate length of dissociation time (typically 10 minutes). Blank reference (0 nM analyte) data were subtracted from each dataset to reduce the impact of any buffer artefacts or non-specific binding effects. A 1:1 binding model was then fitted simultaneously to the data from each analyte titration using the Octet Evaluation software (Table 8).
row,Binder,Kd
1,B1,21 nM
2,B2,9 nM
3,B3,14 nM
4,B8,≤ 2 nM
5,B9,≤ 2 nM
6,B4,11 nM
7,B5,6 nM
8,B7,10 nM
